Experiments:
[1] = target: Factor H binding protein, variant group 1 (V1.p1), wild type (Neisseria meningitidis) (UniProt Q9JXV4); assay: SPR
[2] = target: V2 fHbp with Leu195 replaced by Ala (Neisseria meningitidis); assay: SPR
[3] = target: V1 fHbp with Val272 replaced by Ala (Neisseria meningitidis); assay: SPR
[4] = target: V2 fHbp Thr304Glu (Neisseria meningitidis); assay: SPR
[5] = target: V1 fHbp E283A (Neisseria meningitidis); assay: SPR
[6] = target: V2 fHbp with Val272 replaced by Ala (Neisseria meningitidis); assay: SPR
[7] = target: V2 fHbp with Ala at position 157 (Neisseria meningitidis) (UniProt E6MV22); assay: SPR
[8] = target: V3 fHbp with Val272 replaced by Ala (Neisseria meningitidis); assay: SPR
[9] = target: V3 fHbp P106A (Neisseria meningitidis); assay: SPR
[10] = target: V2 fHbp Thr304Ala (Neisseria meningitidis); assay: SPR
[11] = target: Factor H binding protein, variant group 2 (V2.p21), wild type (Neisseria meningitidis) (UniProt E6MV22); assay: SPR
[12] = target: Factor H binding protein, variant group 3 (V3.p28), wild type (Neisseria meningitidis) (UniProt E6MV22); assay: SPR
[13] = target: V1 fHbp I311A (Neisseria meningitidis); assay: SPR
[14] = target: V2 fHbp with Glu313 replaced by Ala (Neisseria meningitidis); assay: SPR
[15] = target: V2 fHbp Glu283Ala (Neisseria meningitidis); assay: SPR
[16] = target: Factor H binding protein, variant group 2 (V2.p21), wild type (UniProt E6MV22); assay: SPR
[17] = target: Factor H binding protein, variant group 3 (V3.p28), wild type (UniProt E6MV22); assay: SPR
[18] = target: T1, Factor H binding protein, variant group 1 (V1.p1), wild type (Neisseria meningitidis, UniProt Q9JXV4 20-274); assay: not stated; dose response curve of mfH67 binding V1 fHbp (Fig. S2); details: both partners purified
T1 construct: also called V1 fHbp; fHbp
T1 sequence: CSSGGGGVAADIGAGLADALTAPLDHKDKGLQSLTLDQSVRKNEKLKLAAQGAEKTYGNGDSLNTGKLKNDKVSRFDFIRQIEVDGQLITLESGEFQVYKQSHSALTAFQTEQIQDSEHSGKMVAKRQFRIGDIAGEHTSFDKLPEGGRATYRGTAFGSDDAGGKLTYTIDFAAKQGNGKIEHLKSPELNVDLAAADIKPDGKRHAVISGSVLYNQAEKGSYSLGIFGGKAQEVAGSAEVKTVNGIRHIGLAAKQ

[19] = target: T1, Factor H binding protein, variant group …; assay: SPR; details: both partners purified

For “human fH67 with His337 and Arg341 replaced by the murine residues (domain or fragment)”, the Kd [1] was 7000 nM.

With “human factor H CCP domains 6 and 7 (domain or fragment)” the fold reduction in binding relative to wild type [2] was over 5 fold, the Kd [1] was 2.2 nM and the fold reduction in binding relative to wild type [3] was over 5 fold. It also gave a fold increase in KD relative to wild type [4] of 200 fold, a fold increase in KD relative to wild type [5] of 7 fold and a fold reduction in binding relative to wild type [6] of over 5 fold. The fold increase in binding relative to wild type [7] was 5 fold, the fold reduction in binding relative to wild type [8] was over 5 fold and the fold increase in strength of binding relative to wild type [9] was 100 fold. For the same molecule, the fold increase in KD relative to wild type [10] was 10 fold, the Kd [11] was 1.9 nM and the Kd [12] was 2.8 nM. For the same molecule, the Kd [13] was 1300 nM, the fold reduction in binding relative to wild type [14] was over 5 fold and the fold increase in KD relative to wild type [15] was 40 fold.

“human factor H CCP domains 6 and 7 K351R; Y352K” was tested, and the Kd [16] was 44000 nM and the Kd [17] was 33000 nM.

B1: murine factor H CCP domains 6 and 7 (domain or fragment)
chain: LKPCEFPQFKYGRLYYEESLRPNFPVSIGNKYSYKCDNGFSPPSGYSWDYLRCTAQGWEPEVPCVRKCVFHYVENGDSAYWEKVYVQGQSLKVQCYNGYSLQNGQDTMTCTENGWSPPPKCI
notes: also called mfH67; mfH; source: cloned into pET-15b; expressed and purified using the method described previously [40]
With B1 the “fold higher KD than hfH” value [18] was over 10000 fold.

B2: human fH67 with Lys351 and Tyr352 replaced by the murine residues (domain or fragment)
chain: TLKPCDYPDIKHGGLYHENMRRPYFPVAVGRKYSYYCDEHFETPSGSYWDHIHCTQDGWSPAVPCLRKCYFPYLENGYNQNHGRKFVQGKSIDVACHPGYALPKAQTTVTCMENGWSPTPRCI
Molecule B2 has a Kd [19] of 2800 ± 500 nM.

Source: paper PMC3486911 (PLoS Pathogens, 2012)
